# Experimental data taken from article PMC9482650, “Quantitative fragmentomics allow affinity mapping of interactomes” (Nature Communications, 2022).
# T1: APBA1_1, Q02410
# T1 sequence (Q02410 651-752, limits assumed, looked up): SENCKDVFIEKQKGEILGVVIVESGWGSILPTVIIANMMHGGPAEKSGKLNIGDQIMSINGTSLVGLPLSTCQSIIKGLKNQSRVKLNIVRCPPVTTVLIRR
# T2: GRIP1_2, Q9Y3R0
# T2 sequence (Q9Y3R0 145-248, limits assumed, looked up): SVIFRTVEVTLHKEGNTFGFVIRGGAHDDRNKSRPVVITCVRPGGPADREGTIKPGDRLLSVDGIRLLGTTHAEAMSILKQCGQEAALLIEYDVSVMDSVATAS
# T3: GRIP1_3, Q9Y3R0
# T3 sequence (Q9Y3R0 247-346, limits assumed, looked up): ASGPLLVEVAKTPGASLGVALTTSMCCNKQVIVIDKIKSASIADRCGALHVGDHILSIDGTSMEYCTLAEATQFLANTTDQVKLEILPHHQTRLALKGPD
# T4: GRIP1_7, Q9Y3R0
# T4 sequence (Q9Y3R0 999-1096, limits assumed, looked up): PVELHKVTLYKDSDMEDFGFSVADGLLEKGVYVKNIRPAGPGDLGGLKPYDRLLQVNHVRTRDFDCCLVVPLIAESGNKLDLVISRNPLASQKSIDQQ
# T5: LIN7A, O14910
# T5 sequence (O14910 103-200, limits assumed, looked up): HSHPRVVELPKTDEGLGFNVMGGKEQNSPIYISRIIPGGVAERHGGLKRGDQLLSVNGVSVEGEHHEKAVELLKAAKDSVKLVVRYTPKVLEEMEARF
# T6: MPDZ_10, O75970
# T6 sequence (O75970 1624-1722, limits assumed, looked up): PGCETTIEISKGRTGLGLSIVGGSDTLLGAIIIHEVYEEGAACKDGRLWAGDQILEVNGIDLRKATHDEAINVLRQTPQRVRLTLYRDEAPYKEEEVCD
# T7: NHERF3_1, Q5T2W1
# T7 sequence (Q5T2W1 4-100, limits assumed, looked up): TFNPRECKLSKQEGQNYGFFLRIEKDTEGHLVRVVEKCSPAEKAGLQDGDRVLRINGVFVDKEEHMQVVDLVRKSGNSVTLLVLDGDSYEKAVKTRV
# T8: PCLO, Q9Y6V0
# T8 sequence (Q9Y6V0 4491-4600, limits assumed, looked up): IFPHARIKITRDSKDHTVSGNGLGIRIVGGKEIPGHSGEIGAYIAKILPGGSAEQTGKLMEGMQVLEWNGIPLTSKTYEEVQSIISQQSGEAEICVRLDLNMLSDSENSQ
# T9: RADIL, Q96JH8
# T9 sequence (Q96JH8 971-1071, limits assumed, looked up): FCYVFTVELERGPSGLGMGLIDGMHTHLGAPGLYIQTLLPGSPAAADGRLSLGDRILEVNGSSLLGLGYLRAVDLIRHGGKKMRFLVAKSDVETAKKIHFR
# T10: TIAM2, Q8IVF5
# T10 sequence (Q8IVF5 885-986, limits assumed, looked up): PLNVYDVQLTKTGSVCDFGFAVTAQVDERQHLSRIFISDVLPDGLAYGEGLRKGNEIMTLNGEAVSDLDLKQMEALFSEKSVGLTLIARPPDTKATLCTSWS
# What was measured:
# Assay in all cases: holdup assay
# Design in all cases: key: below the threshold = too weak to quantify, mostly under pKd 3.1 to 4
# Conditions in all cases: plain residues with an end cap or a label only (N-terminal biotin on a linker: ado-ado)
# AHNAK1, Q09666 = molecular target: AHNAK1, Q09666
# Chain of AHNAK1, Q09666 (Q09666 4-100): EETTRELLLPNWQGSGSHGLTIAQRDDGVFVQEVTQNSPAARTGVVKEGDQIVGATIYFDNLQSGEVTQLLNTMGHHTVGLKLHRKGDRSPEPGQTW
# APBA1_1, Q02410 = molecular target: T1, APBA1_1, Q02410
# DLG1_1, Q12959 = molecular target: DLG1_1, Q12959
# DLG1_3, Q12959 = molecular target: DLG1_3, Q12959
# DLG2_2, Q15700 = molecular target: DLG2_2, Q15700
# DLG2_3, Q15700 = molecular target: DLG2_3, Q15700
# GIPC2, Q8TF65 = molecular target: GIPC2, Q8TF65
# Chain of GIPC2, Q8TF65 (Q8TF65 112-203): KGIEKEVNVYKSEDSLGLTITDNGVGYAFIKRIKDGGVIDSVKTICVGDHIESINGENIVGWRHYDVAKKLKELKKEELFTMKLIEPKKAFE
# GOPC, Q9HD26 = molecular target: GOPC, Q9HD26
# GORASP2, Q9H8Y8 = molecular target: GORASP2, Q9H8Y8
# GRID2IP_1, A4D2P6 = molecular target: GRID2IP_1, A4D2P6
# Chain of GRID2IP_1, A4D2P6 (A4D2P6 1-87): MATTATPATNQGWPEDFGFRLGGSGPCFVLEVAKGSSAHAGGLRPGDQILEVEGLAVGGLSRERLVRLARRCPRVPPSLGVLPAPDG
# GRIP1_2, Q9Y3R0 = molecular target: T2, GRIP1_2, Q9Y3R0
# GRIP1_3, Q9Y3R0 = molecular target: T3, GRIP1_3, Q9Y3R0
# GRIP1_7, Q9Y3R0 = molecular target: T4, GRIP1_7, Q9Y3R0
# GRIP2_7, Q9C0E4 = molecular target: GRIP2_7, Q9C0E4
# Chain of GRIP2_7, Q9C0E4 (Q9C0E4 934-1023): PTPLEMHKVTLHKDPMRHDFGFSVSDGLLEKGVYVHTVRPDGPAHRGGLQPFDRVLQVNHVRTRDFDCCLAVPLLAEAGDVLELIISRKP
# Inadl_1, Q8NI35 = molecular target: Inadl_1, Q8NI35
# Chain of Inadl_1, Q8NI35 (Q8NI35 113-229): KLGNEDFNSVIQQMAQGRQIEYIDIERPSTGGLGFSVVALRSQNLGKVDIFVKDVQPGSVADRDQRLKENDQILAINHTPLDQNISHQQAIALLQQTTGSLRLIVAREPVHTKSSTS
# LDB3, O75112 = molecular target: LDB3, O75112
# Chain of LDB3, O75112 (O75112 1-94): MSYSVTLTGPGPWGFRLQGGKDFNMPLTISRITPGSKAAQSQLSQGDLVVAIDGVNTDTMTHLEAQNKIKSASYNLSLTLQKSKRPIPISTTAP
# LIN7A, O14910 = molecular target: T5, LIN7A, O14910
# MAGI2_2, Q86UL8 = molecular target: MAGI2_2, Q86UL8
# Chain of MAGI2_2, Q86UL8 (Q86UL8 410-522): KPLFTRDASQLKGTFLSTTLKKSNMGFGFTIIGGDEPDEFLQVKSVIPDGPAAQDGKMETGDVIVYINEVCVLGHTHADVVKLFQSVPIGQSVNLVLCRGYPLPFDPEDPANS
# MAGI2_3, Q86UL8 = molecular target: MAGI2_3, Q86UL8
# Chain of MAGI2_3, Q86UL8 (Q86UL8 600-682): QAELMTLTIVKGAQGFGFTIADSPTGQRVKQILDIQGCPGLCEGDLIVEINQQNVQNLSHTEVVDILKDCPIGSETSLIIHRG
# MPDZ_10, O75970 = molecular target: T6, MPDZ_10, O75970
# NHERF3_1, Q5T2W1 = molecular target: T7, NHERF3_1, Q5T2W1
# NHERF4_4, Q86UT5 = molecular target: NHERF4_4, Q86UT5
# Chain of NHERF4_4, Q86UT5 (Q86UT5 464-550): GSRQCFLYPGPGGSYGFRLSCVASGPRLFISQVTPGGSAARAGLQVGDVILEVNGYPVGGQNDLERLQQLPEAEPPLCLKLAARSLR
# PCLO, Q9Y6V0 = molecular target: T8, PCLO, Q9Y6V0
# RADIL, Q96JH8 = molecular target: T9, RADIL, Q96JH8
# SCRIB_3, Q14160 = molecular target: SCRIB_3, Q14160
# Chain of SCRIB_3, Q14160 (Q14160 999-1103): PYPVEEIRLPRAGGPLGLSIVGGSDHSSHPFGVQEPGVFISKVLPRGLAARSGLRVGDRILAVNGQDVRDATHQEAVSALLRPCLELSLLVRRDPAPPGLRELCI
# TIAM2, Q8IVF5 = molecular target: T10, TIAM2, Q8IVF5
# TJP1_2, Q07157 = molecular target: TJP1_2, Q07157
# Chain of TJP1_2, Q07157 (Q07157 181-274): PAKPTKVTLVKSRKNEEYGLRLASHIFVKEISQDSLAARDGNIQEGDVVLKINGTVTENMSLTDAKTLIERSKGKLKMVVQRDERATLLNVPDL
# TJP1_3, Q07157 = molecular target: TJP1_3, Q07157
# Chain of TJP1_3, Q07157 (Q07157 416-512): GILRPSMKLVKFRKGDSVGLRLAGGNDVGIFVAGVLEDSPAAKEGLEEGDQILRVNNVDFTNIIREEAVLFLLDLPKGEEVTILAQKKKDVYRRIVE
Binder,"pKd (AHNAK1, Q09666)","pKd (APBA1_1, Q02410)","pKd (DLG1_1, Q12959)","pKd (DLG1_3, Q12959)","pKd (DLG2_2, Q15700)","pKd (DLG2_3, Q15700)","pKd (GIPC2, Q8TF65)","pKd (GOPC, Q9HD26)","pKd (GORASP2, Q9H8Y8)","pKd (GRID2IP_1, A4D2P6)","pKd (GRIP1_2, Q9Y3R0)","pKd (GRIP1_3, Q9Y3R0)","pKd (GRIP1_7, Q9Y3R0)","pKd (GRIP2_7, Q9C0E4)","pKd (Inadl_1, Q8NI35)","pKd (LDB3, O75112)","pKd (LIN7A, O14910)","pKd (MAGI2_2, Q86UL8)","pKd (MAGI2_3, Q86UL8)","pKd (MPDZ_10, O75970)",also measured
"KPGKGSETVV [FZD4, Q9ULV1]",below the threshold,below the threshold,4.65,below the threshold,4.87,4.01,3.57,3.73,4.24,below the threshold,below the threshold,below the threshold,below the threshold,below the threshold,below the threshold,below the threshold,below the threshold,5.22,below the threshold,below the threshold,"pKd (NHERF3_1, Q5T2W1): below the threshold; pKd (NHERF4_4, Q86UT5): below the threshold; pKd (PCLO, Q9Y6V0): below the threshold; pKd (RADIL, Q96JH8): 3.97; pKd (SCRIB_3, Q14160): 3.94; pKd (TIAM2, Q8IVF5): below the threshold; pKd (TJP1_2, Q07157): below the threshold; pKd (TJP1_3, Q07157): below the threshold"
"TRKRSGEAAV [PFKM, P08237]",below the threshold,below the threshold,below the threshold,below the threshold,3.59,below the threshold,below the threshold,below the threshold,3.61,below the threshold,below the threshold,below the threshold,below the threshold,below the threshold,below the threshold,below the threshold,below the threshold,4.09,below the threshold,below the threshold,"pKd (NHERF3_1, Q5T2W1): below the threshold; pKd (NHERF4_4, Q86UT5): below the threshold; pKd (PCLO, Q9Y6V0): below the threshold; pKd (RADIL, Q96JH8): below the threshold; pKd (SCRIB_3, Q14160): below the threshold; pKd (TIAM2, Q8IVF5): below the threshold; pKd (TJP1_2, Q07157): below the threshold; pKd (TJP1_3, Q07157): below the threshold"
